The values below come from PMC2173303.

For the data set, the target named is HSF1 (Homo sapiens, UniProt Q00613 1-529). Nature of the data set: EMSA. (Mobility shift assays separate free from complexed probe on a gel.)
HSF1, sequence (Q00613 whole entry): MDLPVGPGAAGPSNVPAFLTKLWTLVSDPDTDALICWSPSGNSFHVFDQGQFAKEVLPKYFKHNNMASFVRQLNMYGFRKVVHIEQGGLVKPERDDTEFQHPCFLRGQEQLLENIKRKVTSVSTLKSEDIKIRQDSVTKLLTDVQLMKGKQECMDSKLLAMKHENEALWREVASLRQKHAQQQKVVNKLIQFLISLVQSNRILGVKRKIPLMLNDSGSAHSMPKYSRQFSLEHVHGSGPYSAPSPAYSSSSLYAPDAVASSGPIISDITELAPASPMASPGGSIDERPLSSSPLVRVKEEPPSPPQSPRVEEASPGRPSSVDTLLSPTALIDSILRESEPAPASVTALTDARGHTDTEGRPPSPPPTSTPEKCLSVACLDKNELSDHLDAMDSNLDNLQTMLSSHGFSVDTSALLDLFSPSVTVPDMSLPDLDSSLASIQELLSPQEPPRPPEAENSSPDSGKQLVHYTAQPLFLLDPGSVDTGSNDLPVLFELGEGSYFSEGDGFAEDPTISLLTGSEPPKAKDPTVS

B1: HSE probe (dsDNA)
DNA 1: TCGGCTGGAATATTCCCGACCTGGCAGCCGA
DNA 2: TCGGCTGCCAGGTCGGGAATATTCCAGCCGA
For the molecule B1, the binding result is reported as “binds”.
